This is an account of results in patent US20250066499A1 (SUNSHINE GUOJIAN PHARMACEUTICAL SHANGHAI, published 2025).

Holding throughout (experiment): ELISA, biotinylated antigen on streptavidin plate
(An ELISA detects its analyte on a solid surface through an enzyme-linked reagent.)

The target in one test is T1, CD73-ND-L181A (human, UniProt P21589 27-317).
T1 construct: Alanine mutant of CD73-ND
T1 sequence: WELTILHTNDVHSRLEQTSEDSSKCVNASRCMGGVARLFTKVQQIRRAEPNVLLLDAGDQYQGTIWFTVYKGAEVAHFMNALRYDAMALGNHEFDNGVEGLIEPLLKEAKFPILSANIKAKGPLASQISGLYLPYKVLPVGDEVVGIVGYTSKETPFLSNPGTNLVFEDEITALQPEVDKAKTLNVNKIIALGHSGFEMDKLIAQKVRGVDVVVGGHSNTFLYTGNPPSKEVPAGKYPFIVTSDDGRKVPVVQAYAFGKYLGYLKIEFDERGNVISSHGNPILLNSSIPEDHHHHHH
Here is the method: (§1) The ELISA plates were coated with SA protein diluted to 1.5 μg/mL in coating buffer (50 mM carbonate coating buffer, pH 9.6) and incubated overnight at 4° C. The supernatant was discarded, and the plates were washed three times with PBST. Then, 5% skimmed milk powder prepared with PBS was added for blocking and the plates were incubated for 2 h at 37° C. After washing the plates once with PBST, CD73-biotin protein (prepared by biotinylating CD73-His protein according to the EZ-Link NHS-Biotin Reagent instructions) was diluted to 0.5 μg/mL and added at 100 μL/well for incubation at room temperature for 1 h. The plates were washed three times with PBST, and the prepared murine-derived monoclonal antibodies against human CD73 were serially diluted with 1% BSA buffer prepared with PBST and added to the ELISA plates at 100 μl/well. The plates were incubated at 37° C. for 1 h. After washing the plates three times with PBST, HRP-labeled goat anti-mouse IgG secondary antibody was added and the plates were incubated for 30 min at 37° C. After washing the plates three times with PBST, the residual droplets were patted dry on absorbent paper as much as possible. Then, 100 μl of TMB color developing solution was added to each well, and the plates were incubated in the dark at room temperature for 5 min for color development. Subsequently, 50 μl of 2M H₂SO₄ stop solution was added to each well to terminate the substrate reaction. The OD values were read at 450 nm using a multimode microplate reader to analyze the binding ability of the tested antibodies to the target antigen human CD73-His.
(§2) Referring to the experimental method in Example 3, the affinity of 48A11-HuV33 for various mutant proteins of CD73-ND was determined. The SA protein was diluted to 1 μg/mL for coating the ELISA plates, and the biotinylated CD73 protein (CD73-biotin) was used at a concentration of 0.1 μg/mL.

A further test deals with T2, CD73-ND-V144A (human, UniProt P21589 27-317).
T2 construct: Alanine mutant of CD73-ND
T2 sequence: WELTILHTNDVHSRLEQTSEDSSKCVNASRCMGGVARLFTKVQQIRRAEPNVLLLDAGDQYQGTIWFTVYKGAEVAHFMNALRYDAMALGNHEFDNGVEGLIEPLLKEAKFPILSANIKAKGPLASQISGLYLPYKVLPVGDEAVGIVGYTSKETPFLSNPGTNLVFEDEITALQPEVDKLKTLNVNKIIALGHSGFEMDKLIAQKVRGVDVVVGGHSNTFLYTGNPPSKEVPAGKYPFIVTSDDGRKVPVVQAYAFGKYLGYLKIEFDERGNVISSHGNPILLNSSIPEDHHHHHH
On the procedure:
as §1, §2

The target in a further test is T3, CD73-ND-E143A (human, UniProt P21589 27-317).
T3 construct: Alanine mutant of CD73-ND
T3 sequence: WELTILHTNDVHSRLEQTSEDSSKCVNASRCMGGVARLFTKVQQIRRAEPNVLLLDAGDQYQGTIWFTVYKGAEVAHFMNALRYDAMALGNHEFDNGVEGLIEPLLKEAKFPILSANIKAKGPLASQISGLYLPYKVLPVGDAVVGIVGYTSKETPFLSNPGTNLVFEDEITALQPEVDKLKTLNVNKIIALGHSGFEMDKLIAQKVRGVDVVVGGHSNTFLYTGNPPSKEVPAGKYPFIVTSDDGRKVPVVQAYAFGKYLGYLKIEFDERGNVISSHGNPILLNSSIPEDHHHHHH
On the procedure: as §1, §2

In the next test the target is T4, CD73-ND-his (human, UniProt P21589 27-317).
T4 construct: Biotinylated and captured on streptavidin in the ELISA
T4 sequence: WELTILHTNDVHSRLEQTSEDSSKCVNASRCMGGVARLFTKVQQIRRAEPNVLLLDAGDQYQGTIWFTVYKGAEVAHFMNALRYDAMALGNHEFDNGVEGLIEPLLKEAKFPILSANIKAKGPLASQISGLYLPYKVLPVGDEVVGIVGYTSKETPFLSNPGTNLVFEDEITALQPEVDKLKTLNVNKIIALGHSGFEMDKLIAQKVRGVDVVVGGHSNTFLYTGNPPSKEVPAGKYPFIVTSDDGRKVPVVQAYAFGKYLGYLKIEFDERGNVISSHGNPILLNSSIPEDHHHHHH
Here is the method: as §1, §2

The next test concerns the target T5, CD73-ND-N185A (human, UniProt P21589 27-317).
T5 construct: Alanine mutant of CD73-ND
T5 sequence: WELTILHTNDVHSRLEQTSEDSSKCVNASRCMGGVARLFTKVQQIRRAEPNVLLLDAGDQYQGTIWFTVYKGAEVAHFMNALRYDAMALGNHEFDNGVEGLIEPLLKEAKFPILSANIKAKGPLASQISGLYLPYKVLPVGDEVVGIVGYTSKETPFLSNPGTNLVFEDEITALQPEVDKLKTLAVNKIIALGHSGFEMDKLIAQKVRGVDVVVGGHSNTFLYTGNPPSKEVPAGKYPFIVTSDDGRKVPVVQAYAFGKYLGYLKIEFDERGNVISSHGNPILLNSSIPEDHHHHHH
Here is the method:
as §1, §2

B1: 48A11-HuV33 (antibody, human IgG4, V domains shown)
VH: QVQLVQSGAEVKKPGASVKVSCKASGYTFTSYWMHWVRQAPGQGLEWIGEINPSIGRTNYNEKFKSRVTLTRDTSTSTAYMELSSLRSEDTAVYYCARRVYGTMDYWGQGTLVTVSS
VL: DIQMTQSPSSLSASVGDRVTITCKASQDINSYLSWFQQKPGKSPKLLIYRANIWVDGVPSRFSGSGSGQDYTFTISSLQPEDIATYYCLQYDELYTFGQGTKVEIK
notes: Humanized
Broadly, the EC50 is the concentration needed to bring the measured effect to its halfway point. Read a high EC50 as a need for much substance. In the case of B1, the EC50 in the test with CD73-ND-L181A is 0.226 nM; in the test with CD73-ND-V144A it was 0.29 nM; in the test with CD73-ND-E143A, 0.167 nM; with CD73-ND-his, 0.117 nM; with CD73-ND-N185A, 0.188 nM.
